Earlier results as cited in US20260265800A1, “NEW FUCOSYLTRANSFERASES FOR IN VIVO SYNTHESIS OF LNFP-III” (DSM IP Assets B.V., priority 2022, published 2026).
Substitutions are numbered along the chain they refer to.

B1: PglpF_SD4: promoter sequence, SEQ ID NO: 23 (nucleic acid)
DNA: ATGCGCAAATGCGGCACGCCTTGCAGATTACGGTTTGCCACACTTTTCATCCTTCTCCTGGTGACATAATCCACATCAATCGAAAATGTTAATAAATTTGTTGCGCGAATGATCTAACAAACATGCATCATGTACAATCAGATGGAATAAATGGCGCGATAACGCTCATTTTATGACGAGGCACACACATTTTAAGTTCGATATTTCTCGTTTTTGCTCGTTAACGATAAGTTTACAGCATGCCTACAAGCATCGTGGAGGTCCGTGACTTTCACGCATACAACAAACATTAACCAACTAGGAAACAGCT
B2: PglpF_SD10: promoter sequence, SEQ ID NO: 29 (nucleic acid)
DNA: B1 DNA with A300G, G301A
B3: PglpF_SD9: promoter sequence, SEQ ID NO: 33 (nucleic acid)
DNA: B1 DNA with C298A, T299G, A300G, G301A, G302A
B4: PglpF_SD5: promoter sequence, SEQ ID NO: 30 (nucleic acid)
DNA: B1 DNA with T299C, A300G, G301A
B5: PglpF_SD8: promoter sequence, SEQ ID NO: 31 (nucleic acid)
DNA: B1 DNA with C298G, T299A, A300G, G301A, G302A
B6: PmglB_16UTR: promoter sequence, SEQ ID NO: 32 (nucleic acid)
DNA: TGCGTCGCCATTCTGTCGCAACACGCCAGAATGCGGCGGCGATCACTAACTCAACAAATCAGGCGATGTAACCGCTTTCAATCTGTGAGTGATTTCACAGTATCTTAACAATGTGATAGCTATGATTGCACCGTTTTAACGTTGTAACCCGTATGTAACAGTGAATAATCACTTTTGCCGAGGTAACAGCGTCATAACAACAATTAAAGCCGTTTTCTGGAGCGTTACCGGGCATGGAAGAACGAATTTTAAAAAGTGAGCTTCGGCGTTCAGTAACACTTCATTAACTCTACTGCCCCGCCGAGCATTTATCTCAAGCACTACCCTGCATAAGCAAGGAGGAAACAGCT
B7: PglpA_70UTR: promoter sequence, SEQ ID NO: 26 (nucleic acid)
DNA: GAAAACATTCATAAATTAAATGTGAATTGCCGCACACATTATTAAATAAGATTTACAAAATGTTCAAAATGACGCATGAAATCACGTTTCACTTTCGAATTATGAGCGAATATGCGCGATGCCTACAAGCATCGTGGAGGTCCGTGACTTTCACGCATACAACAAACATTAACCAAGGAGGAAACAGCT
B8: PmglB_70UTR_SD9: promoter sequence, SEQ ID NO: 20 (nucleic acid)
DNA: TGCGTCGCCATTCTGTCGCAACACGCCAGAATGCGGCGGCGATCACTAACTCAACAAATCAGGCGATGTAACCGCTTTCAATCTGTGAGTGATTTCACAGTATCTTAACAATGTGATAGCTATGATTGCACCGTGCCTACAAGCATCGTGGAGGTCCGTGACTTTCACGCATACAACAAACATTAACCAAAGGAAAAACAGCT
B9: PmglB_70UTR_SD4: promoter sequence, SEQ ID NO: 21 (nucleic acid)
DNA: B8 DNA with A191C, G192T, G193A, A194G, A195G
B10: PmglB_70UTR_SD7: promoter sequence, SEQ ID NO: 24 (nucleic acid)
DNA: B8 DNA with A191G, G192A, A194C
B11: PmglB_70UTR_SD5: promoter sequence, SEQ ID NO: 22 (nucleic acid)
DNA: B8 DNA with A191C, G192C, A195G
B12: PmglB_70UTR: promoter sequence, SEQ ID NO: 25 (nucleic acid)
DNA: B8 DNA with A191G, G193A, A194G, A195G
B13: PglpT_70UTR: promoter sequence, SEQ ID NO: 27 (nucleic acid)
DNA: CCATTTAGCCATAGTAAAAACATGAATTGTTTGATTTCGCGCATATTCGCTCATAATTCGAAAGTGAAACGTGATTTCATGCGTCATTTTGAACATTTTGTAAATCTTATTTAATAATGTGTGCGGCAATTCACATTTAATTTATGAATGTTTTCTTAACATCGCGGCATGCCTACAAGCATCGTGGAGGTCCGTGACTTTCACGCATACAACAAACATTAACCAAGGAGGAAACAGCT

test system: β-galactosidase activity; settings: LacZ assay, PglpF as positive reference; a range indicates results from multiple assays; cited from earlier work

Molecule	% Activity relative to PglpF
B1	140-161%
B2	88-96%
B3	73-93%
B4	82-91%
B5	81-82%
B6	78-171%
B7	102-179%
B8	180-226%
B9	153%-353%
B10	127-173%
B11	146-152%
B12	124-234%
B13	102-240%

same assay, conditions: LacZ assay; cited from earlier work

Molecule	Strength
B1	high (A regulatory element with an activity above 10,000 MU is considered strong)
B2	high (A regulatory element with an activity above 10,000 MU is considered strong)
B3	middle (what is in between has intermediate strength)
B4	high (A regulatory element with an activity above 10,000 MU is considered strong)
B5	high (A regulatory element with an activity above 10,000 MU is considered strong)
B6	high (A regulatory element with an activity above 10,000 MU is considered strong)
B7	high (A regulatory element with an activity above 10,000 MU is considered strong)
B8	high (A regulatory element with an activity above 10,000 MU is considered strong)
B9	high (A regulatory element with an activity above 10,000 MU is considered strong)
B10	high (A regulatory element with an activity above 10,000 MU is considered strong)
B11	high (A regulatory element with an activity above 10,000 MU is considered strong)
B12	high (A regulatory element with an activity above 10,000 MU is considered strong)
B13	high (A regulatory element with an activity above 10,000 MU is considered strong)
